The target in the assay is Histone H3 (H3K9me3) (Homo sapiens, UniProt P68431). The assay can be described thus: fluorescence microscopy titration in fixed HEK293 cells (Hill1 fit).

Consider one molecule from PMC11368889 (2024).

B1: MPP8-Green (MPP8-mNeonGreen-NLS-MPP8) 55-117 (protein)
chain: GEDVFEVEKILDMKTEGGKVLYKVRWKGYTSDDDTWEPEIHLEDCKEVLLEFRKKIAENKAKA
In the case of B1, the dissociation constant Kd was determined as 490 nM.
